# Measured values published in patent US20190032049.
# Key:
# [1] = test system: tetR:DNMT3A (tetR:D3A) (Escherichia coli); assay: cell_activity; conditions: no doxycycline, stable expression, slower kinetics
# [2] = test system: tetR:KRAB (tetR:K) (Escherichia coli); assay: cell_activity; conditions: no doxycycline, stable expression, AAVS1/TetO7 K562
substance,measurement,setting,value
TetO7 (seven tandem TetO repeats),activity (% eGFP-negative cells),[1],100
same,activity (% eGFP-negative cells),[2],100
